# Data: the supplement of paper PMC6755084
# B1: minF1; the commonest letter at each place (parent)
# chain: GAGACCGCAACTGAAAAGTTGTTATCAGAAATGGATGGGTTGAATTTCTGCACGTAGAAGCAAAAGGC
# B2: minF1; a variant is named by its letters at N, in order (parent)
# chain: GAGACCGCAACTGAAAAGTTGTTNNNNAANNNNGGNTNNATTTCTGCACGTAGAAGCAAAAGGC
# Variants of: B1
# Assay: fraction ligated after 30 min (ligated reads / total reads); higher = more ligase activity
# Conditions: with F1*subA RNA substrate (template-directed ligation), 42 °C
# In short: (§1)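 Minimized ligase ribozyme variants came from oligo-pool templates that were PCR-amplified, T7-transcribed and gel-purified. Their ligated and unligated RNAs were separated on gels before barcoded reverse transcription and MiSeq sequencing, with core bases kept only at quality ≥30. The fraction ligated for each variant is its ligated reads as a proportion of all its reads.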
row,Variant,fraction ligated
1,GAGACCGCAACTGAAAAGTTGTAATCTGAAATGGATGGGTTGAATTTCTGCACGTAGAAGCAAAAGGC,0.488
2,GAGACCGCAACTGAAAAGTTGTAATCCGAAATGGATGGGTTGAATTTCTGCACGTAGAAGCAAAAGGC,0.0462
3,GAGACCGCAACTGAAAAGTTGTAATCGGAAATGGATGGGTTGAATTTCTGCACGTAGAAGCAAAAGGC,0.234
4,GAGACCGCAACTGAAAAGTTGTAATCAGAAATGGATGGGTTGAGTTTCTGCACGTAGAAGCAAAAGGC,0.0455
5,GAGACCGCAACTGAAAAGTTGTAATCAGAAATGGATGGGTTGACTTTCTGCACGTAGAAGCAAAAGGC,0.0208
6,GAGACCGCAACTGAAAAGTTGTAATCAGAAATGGATGGGTTGATTTTCTGCACGTAGAAGCAAAAGGC,0.0479
7,GAGACCGCAACTGAAAAGTTGTAATCACAAATGGATGGGTTGAATTTCTGCACGTAGAAGCAAAAGGC,0.132
8,GAGACCGCAACTGAAAAGTTGTAATCATAAATGGATGGGTTGAATTTCTGCACGTAGAAGCAAAAGGC,0.176
9,GAGACCGCAACTGAAAAGTTGTAATCAAAAATGGATGGGTTGAATTTCTGCACGTAGAAGCAAAAGGC,0.178
10,GAGACCGCAACTGAAAAGTTGTAATCAGAAATAGATGGGTTGAATTTCTGCACGTAGAAGCAAAAGGC,0.178
11,GAGACCGCAACTGAAAAGTTGTAATCAGAAATCGATGGGTTGAATTTCTGCACGTAGAAGCAAAAGGC,0.0701
12,GAGACCGCAACTGAAAAGTTGTAATCAGAAATTGATGGGTTGAATTTCTGCACGTAGAAGCAAAAGGC,0.0493
13,GAGACCGCAACTGAAAAGTTGTAAGCAGAAATGGATGGGTTGAATTTCTGCACGTAGAAGCAAAAGGC,0.00615
14,GAGACCGCAACTGAAAAGTTGTAACCAGAAATGGATGGGTTGAATTTCTGCACGTAGAAGCAAAAGGC,0.0136
15,GAGACCGCAACTGAAAAGTTGTAAACAGAAATGGATGGGTTGAATTTCTGCACGTAGAAGCAAAAGGC,0.00503
16,GAGACCGCAACTGAAAAGTTGTAATCAGAAATGGCTGGGTTGAATTTCTGCACGTAGAAGCAAAAGGC,0.00609
17,GAGACCGCAACTGAAAAGTTGTAATCAGAAATGGTTGGGTTGAATTTCTGCACGTAGAAGCAAAAGGC,0.0125
18,GAGACCGCAACTGAAAAGTTGTAATCAGAAATGGGTGGGTTGAATTTCTGCACGTAGAAGCAAAAGGC,0.0122
19,GAGACCGCAACTGAAAAGTTGTAATCAGAGATGGATGGGTTGAATTTCTGCACGTAGAAGCAAAAGGC,0.358
20,GAGACCGCAACTGAAAAGTTGTAATCAGACATGGATGGGTTGAATTTCTGCACGTAGAAGCAAAAGGC,0.126
21,GAGACCGCAACTGAAAAGTTGTAATCAGATATGGATGGGTTGAATTTCTGCACGTAGAAGCAAAAGGC,0.132

row,Variant,fraction ligated
1,GAGACCGCAACTGAAAAGTTGTAATCAGAAATGGATGGGTTCAATTTCTGCACGTAGAAGCAAAAGGC,0.00428
2,GAGACCGCAACTGAAAAGTTGTAATCAGAAATGGATGGGTTTAATTTCTGCACGTAGAAGCAAAAGGC,0.003
3,GAGACCGCAACTGAAAAGTTGTAATCAGAAATGGATGGGTTAAATTTCTGCACGTAGAAGCAAAAGGC,0.0065
4,GAGACCGCAACTGAAAAGTTGTAATCAGTAATGGATGGGTTGAATTTCTGCACGTAGAAGCAAAAGGC,0.156
5,GAGACCGCAACTGAAAAGTTGTAATCAGGAATGGATGGGTTGAATTTCTGCACGTAGAAGCAAAAGGC,0.189
6,GAGACCGCAACTGAAAAGTTGTAATCAGCAATGGATGGGTTGAATTTCTGCACGTAGAAGCAAAAGGC,0.15
7,GAGACCGCAACTGAAAAGTTGTAATCAGAAATGGATCGGTTGAATTTCTGCACGTAGAAGCAAAAGGC,0.00499
8,GAGACCGCAACTGAAAAGTTGTAATCAGAAATGGATAGGTTGAATTTCTGCACGTAGAAGCAAAAGGC,0.00757
9,GAGACCGCAACTGAAAAGTTGTAATCAGAAATGGATTGGTTGAATTTCTGCACGTAGAAGCAAAAGGC,0.00942
10,GAGACCGCAACTGAAAAGTTGTAATTAGAAATGGATGGGTTGAATTTCTGCACGTAGAAGCAAAAGGC,0.0201
11,GAGACCGCAACTGAAAAGTTGTAATGAGAAATGGATGGGTTGAATTTCTGCACGTAGAAGCAAAAGGC,0.00512
12,GAGACCGCAACTGAAAAGTTGTAATAAGAAATGGATGGGTTGAATTTCTGCACGTAGAAGCAAAAGGC,0.00635
13,GAGACCGCAACTGAAAAGTTGTCCTCAGAAATGGATGGGTTGAATTTCTGCACGTAGAAGCAAAAGGC,0.0187
14,GAGACCGCAACTGAAAAGTTGTCGTCAGAAATGGATGGGTTGAATTTCTGCACGTAGAAGCAAAAGGC,0.0315
15,GAGACCGCAACTGAAAAGTTGTCTTCAGAAATGGATGGGTTGAATTTCTGCACGTAGAAGCAAAAGGC,0.0194
16,GAGACCGCAACTGAAAAGTTGTAATCAGAAAGGGATGGGTTGAATTTCTGCACGTAGAAGCAAAAGGC,0.000962
17,GAGACCGCAACTGAAAAGTTGTAATCAGAAACGGATGGGTTGAATTTCTGCACGTAGAAGCAAAAGGC,0.00262
18,GAGACCGCAACTGAAAAGTTGTAATCAGAAAAGGATGGGTTGAATTTCTGCACGTAGAAGCAAAAGGC,0.00638
19,GAGACCGCAACTGAAAAGTTGTAGTCAGAAATGGATGGGTTGAATTTCTGCACGTAGAAGCAAAAGGC,0.00909
20,GAGACCGCAACTGAAAAGTTGTATTCAGAAATGGATGGGTTGAATTTCTGCACGTAGAAGCAAAAGGC,0.0331
21,GAGACCGCAACTGAAAAGTTGTACTCAGAAATGGATGGGTTGAATTTCTGCACGTAGAAGCAAAAGGC,0.0188

row,Variant,fraction ligated
1,GAGACCGCAACTGAAAAGTTGTAATCAGAAATGTATGGGTTGAATTTCTGCACGTAGAAGCAAAAGGC,0.00436
2,GAGACCGCAACTGAAAAGTTGTAATCAGAAATGCATGGGTTGAATTTCTGCACGTAGAAGCAAAAGGC,0.00115
3,GAGACCGCAACTGAAAAGTTGTAATCAGAAATGAATGGGTTGAATTTCTGCACGTAGAAGCAAAAGGC,0.0227
4,GAGACCGCAACTGAAAAGTTGTCATCAGGAATGGATGGGTTGAATTTCTGCACGTAGAAGCAAAAGGC,0.277
5,GAGACCGCAACTGAAAAGTTGTCATCAGCAATGGATGGGTTGAATTTCTGCACGTAGAAGCAAAAGGC,0.254
6,GAGACCGCAACTGAAAAGTTGTCATCGGAAATGGATGGGTTGAATTTCTGCACGTAGAAGCAAAAGGC,0.354
7,GAGACCGCAACTGAAAAGTTGTCATCCGAAATGGATGGGTTGAATTTCTGCACGTAGAAGCAAAAGGC,0.133
8,GAGACCGCAACTGAAAAGTTGTCATCTGAAATGGATGGGTTGAATTTCTGCACGTAGAAGCAAAAGGC,0.595
9,GAGACCGCAACTGAAAAGTTGTCATCAGAAATGGATGGGTTGAATTTCTGCACGTAGAAGCAAAAGGC,0.318
10,GAGACCGCAACTGAAAAGTTGTAATCAGAAATGGATGGGTTGAATTTCTGCACGTAGAAGCAAAAGGC,0.215
11,GAGACCGCAACTGAAAAGTTGTAATCAGAAATGGATGGGTTGGATTTCTGCACGTAGAAGCAAAAGGC,0.00242
12,GAGACCGCAACTGAAAAGTTGTAATCAGAAATGGATGGGTTGTATTTCTGCACGTAGAAGCAAAAGGC,0.00536
13,GAGACCGCAACTGAAAAGTTGTAATCAGAAATGGATGGGTTGCATTTCTGCACGTAGAAGCAAAAGGC,0.00617
14,GAGACCGCAACTGAAAAGTTGTAATCAGAATTGGATGGGTTGAATTTCTGCACGTAGAAGCAAAAGGC,0.325
15,GAGACCGCAACTGAAAAGTTGTAATCAGAACTGGATGGGTTGAATTTCTGCACGTAGAAGCAAAAGGC,0.181
16,GAGACCGCAACTGAAAAGTTGTAATCAGAAGTGGATGGGTTGAATTTCTGCACGTAGAAGCAAAAGGC,0.264
17,GAGACCGCAACTGAAAAGTTGTAATCAGAAATGGAAGGGTTGAATTTCTGCACGTAGAAGCAAAAGGC,0.0114
18,GAGACCGCAACTGAAAAGTTGTAATCAGAAATGGAGGGGTTGAATTTCTGCACGTAGAAGCAAAAGGC,0.0346
19,GAGACCGCAACTGAAAAGTTGTAATCAGAAATGGACGGGTTGAATTTCTGCACGTAGAAGCAAAAGGC,0.012

# Variants of: B2
# Assay: as above
# Conditions: with F1*subA RNA substrate (template-directed ligation), 42 °C
# In short: as §1
row,Variant,fraction ligated
1,GAGACCGCAACTGAAAAGTTGTTATGAAATGGATGGGTTGTTTCTGCACGTAGAAGCAAAAGGC,0.0011
2,GAGACCGCAACTGAAAAGTTGTTATGAAATGGGGGTTGAATTTCTGCACGTAGAAGCAAAAGGC,0
3,GAGACCGCAACTGAAAAGTTGTTATGAAATGGATGGTTGATTTCTGCACGTAGAAGCAAAAGGC,0.011
4,GAGACCGCAACTGAAAAGTTGTTATGAAATGGTGGTTGAATTTCTGCACGTAGAAGCAAAAGGC,0.00283
5,GAGACCGCAACTGAAAAGTTGTTATGAAATGGATGGTTAATTTCTGCACGTAGAAGCAAAAGGC,0.00469
6,GAGACCGCAACTGAAAAGTTGTTATGAAATGGAGGTTGAATTTCTGCACGTAGAAGCAAAAGGC,0.00302
7,GAGACCGCAACTGAAAAGTTGTTATGAAATATGGGTTGAATTTCTGCACGTAGAAGCAAAAGGC,0.00429
8,GAGACCGCAACTGAAAAGTTGTTATGAAATGGTGGGTTAATTTCTGCACGTAGAAGCAAAAGGC,0.00485
9,GAGACCGCAACTGAAAAGTTGTTATGAAATGGTGGGTTGATTTCTGCACGTAGAAGCAAAAGGC,0.00658
10,GAGACCGCAACTGAAAAGTTGTTATGAAATGATGGGTTAATTTCTGCACGTAGAAGCAAAAGGC,0.00247
11,GAGACCGCAACTGAAAAGTTGTTATGAAATGATGGGTTGATTTCTGCACGTAGAAGCAAAAGGC,0.00639
12,GAGACCGCAACTGAAAAGTTGTTATGAAATGTGGGTTGAATTTCTGCACGTAGAAGCAAAAGGC,0.0027
13,GAGACCGCAACTGAAAAGTTGTTATGAAATGATGGTTGAATTTCTGCACGTAGAAGCAAAAGGC,0.00379
14,GAGACCGCAACTGAAAAGTTGTTATGAAATGGATGGGTTATTTCTGCACGTAGAAGCAAAAGGC,0.00184
15,GAGACCGCAACTGAAAAGTTGTTATGAAATGAGGGTTGAATTTCTGCACGTAGAAGCAAAAGGC,0.00204
16,GAGACCGCAACTGAAAAGTTGTTATGAAATGGAGGGTTAATTTCTGCACGTAGAAGCAAAAGGC,0.00203
17,GAGACCGCAACTGAAAAGTTGTTATGAAATGGAGGGTTGATTTCTGCACGTAGAAGCAAAAGGC,0.00409
18,GAGACCGCAACTGAAAAGTTGTTATGAAAGGTGGGTTGAATTTCTGCACGTAGAAGCAAAAGGC,0.00168
19,GAGACCGCAACTGAAAAGTTGTTATGAATGGTGGGTTGAATTTCTGCACGTAGAAGCAAAAGGC,0.00679
